Test results reported in publication doi:10.1101/313767 (bioRxiv, 2018).

Assays:
TRIB1(84–372) [1] = target: T1, TRIB1(84–372) (human, UniProt Q96RU8 84-372); assay: ITC
T1 sequence: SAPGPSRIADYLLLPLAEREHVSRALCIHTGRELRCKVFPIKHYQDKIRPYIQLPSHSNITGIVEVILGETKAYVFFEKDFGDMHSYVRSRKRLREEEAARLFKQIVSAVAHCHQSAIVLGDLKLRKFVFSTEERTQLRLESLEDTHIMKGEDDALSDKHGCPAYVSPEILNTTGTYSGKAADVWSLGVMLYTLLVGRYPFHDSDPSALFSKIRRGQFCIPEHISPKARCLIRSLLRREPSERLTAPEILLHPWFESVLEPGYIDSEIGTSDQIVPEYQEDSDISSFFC

[2] = target: T2, TRIB1(84–343), the pseudokinase part of the crystallised fusion (human, UniProt Q96RU8 84-343); assay: crystal structure
T2 sequence: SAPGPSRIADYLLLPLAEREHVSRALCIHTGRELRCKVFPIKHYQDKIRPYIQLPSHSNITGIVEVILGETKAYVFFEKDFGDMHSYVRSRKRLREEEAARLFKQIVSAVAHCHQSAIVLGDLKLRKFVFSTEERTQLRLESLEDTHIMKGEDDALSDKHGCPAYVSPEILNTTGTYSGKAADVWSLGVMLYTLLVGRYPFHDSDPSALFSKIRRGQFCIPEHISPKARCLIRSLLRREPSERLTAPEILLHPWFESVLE

WT GST-TRIB1(84–372) = target: T3, WT GST-TRIB1(84–372) (human, UniProt Q96RU8 84-372); assay: pull-down
T3 sequence: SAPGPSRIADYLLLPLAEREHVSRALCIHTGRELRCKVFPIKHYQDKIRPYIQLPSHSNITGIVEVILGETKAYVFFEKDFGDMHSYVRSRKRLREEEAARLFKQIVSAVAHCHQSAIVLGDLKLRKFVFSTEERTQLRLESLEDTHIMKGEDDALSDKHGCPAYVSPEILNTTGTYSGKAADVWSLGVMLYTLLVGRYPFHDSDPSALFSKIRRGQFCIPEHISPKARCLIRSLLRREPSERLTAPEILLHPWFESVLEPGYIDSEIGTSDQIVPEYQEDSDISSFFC

TRIB1(84–372) [3] = target: T1, TRIB1(84–372); assay: differential scanning fluorimetry

PAMYDDESAIDFSAYIDSMAAVP [C/EBPδ(50–72) fused to maltose-binding protein]
binding result (TRIB1(84–372) [1]): binds

GDMCEHEASIDLSAYIESGEEQL [C/EBPε(31–53) fused to maltose-binding protein]
binding result (TRIB1(84–372) [1]): binds

GGICEHETSIDISAYIDPAAFND [C/EBPα(53–75), the degron part of the crystallised fusion]
binding result [2]: binds

GGICEHETSIDISAYIDPAAFND [His6MBP-C/EBPα(53–75)]
binding result (TRIB1(84–372) [1]): binds
binding result (WT GST-TRIB1(84–372)): binds

GGICEHETSIDISAYIDPAAFND [C/EBPα peptide (53–75)]
binding result (TRIB1(84–372) [3]): binds
